Series [1] concerns the target AAV2 Rep68* (Rep68 C151S) (adeno-associated virus 2 (AAV2)) (UniProt P03132). Nature of the series: cryo-EM structure.
The target is the same in series [2]. Nature of the series: cryo-EM structure. This is another data set of the same source.
The target is the same in series [3]. Briefly: cryo-EM structure. This is another data set of the same source.
Series [4] shares this target. Nature of the series: cryo-EM structure. This is another data set of the same source.
The target is the same in series [5]. Briefly: cryo-EM structure. This is another data set of the same source.
Series [6] deals with the molecule itself. Briefly: cross-linking.

Values joined by “and” are separate entries in the source; they are usually repeats but may differ in a detail not shown here. Equal entries are not always repeated. Where two headings read alike, the source gives them in different places.

For “AAV2 Rep68* (Rep68 C151S) (from UniProt P03132 1-536) (enzyme)”, the stoichiometry N in series [1] is 7; in series [2], 8; in series [3] it was 7; in series [4], 6; in series [5], 6 and 7.

B1: AAV2 Rep68 origin binding domain (OBD) (domain or fragment, adeno-associated virus 2 (AAV2))
chain: MPGFYEIVIKVPSDLDGHLPGISDSFVNWVAEKEWELPPDSDMDLNLIEQAPLTVAEKLQRDFLTEWRRVSKAPEALFFVQFEKGESYFHMHVLVETTGVKSMVLGRFLSQIREKLIQRIYRGIEPTLPNWFAVTKTRNGAGGGNKVVDECYIPNYLLPKTQPELQWAWTNMEQYLSACLNLTERKRLVAQHLTHVSQTQEQNKENQNPN
Regarding B1, in series [6], the “stoichiometry N” value is 8.

As a reminder, the stoichiometry N is a count of units in the complex or per binding partner.

The values above are taken from publication PMC7736791 (Nucleic Acids Research, 2020).
